This note sets out measurements from article PMC6133441, “Characterization of neutralizing antibodies reacting with the 213-224 amino-acid segment of human galectin-9” (PLoS ONE, 2018).

One test addresses T1, peptide 12 (Homo sapiens, UniProt O00182).
T1 construct: 15-mer of human gal-9, twelfth of 15 overlapping peptides spanning aa 202-230 (gal-9L coordinates) with a shift of one aa; limits worked out from peptide 1 = 202-216; they are counted from the set
T1 chain: IPPMMYPHPAYPMPF
As to the kind of experiment: ELISA; competition: Gal-Nab1 (0.06 μg/mL) or Gal-Nab2 (0.3 μg/mL) pre-incubated with each 15-mer peptide (0.0001 to 10 μg/mL), then added to plates coated with gal-9; HRP-conjugated anti-mouse antibodies; percent inhibition. Particulars: both partners purified. For orientation: In an ELISA, binding on a coated surface is turned into a signal by an enzyme label.

A further test has as its target T2, peptide 13 (Homo sapiens, UniProt O00182).
T2 construct: 15-mer of human gal-9, thirteenth of 15 overlapping peptides spanning aa 202-230 (gal-9L coordinates) with a shift of one aa; limits worked out from peptide 1 = 202-216; they are counted from the set
T2 chain: PPMMYPHPAYPMPFI
The test is described as above. The note with it: both partners purified.

Test [1] has as its target T3, CTB oligopeptide containing the amino-acids 208 to 232 of gal-9L (Homo sapiens, biotin at the C-terminus: K(biotin)-OH).
T3 construct: stuffer aa not related to gal-9, designed to increase solubility and accessibility; stuffer aa not related to gal-9; the last lysine carries the biotin; 32-mer; also called CTB-gal-9 peptide; CTB peptide
In words: SPR; Biacore T200; biotinylated CTB or scramble oligopeptide on a streptavidin (SA) chip; Gal-Nab1 and Gal-Nab2 as analytes, 0.05 to 3.2 nM, 40 μL/min, 700 s, PBS with albumin 0.1 mg/mL and tween 0.05%; dissociation 800 s; apparent affinities (avidity). On the set-up: t1/2: unit not given here. The note with it: both partners purified. (In SPR one partner is held on a chip, and binding of the other changes the refractive index at the surface.)

In test [2] the target is human recombinant galectin-9, short isoform (gal-9S) (Homo sapiens, UniProt O00182-3, strain, biotin in the direct ELISA (sites not given); unlabelled in the cell assays). As to the kind of experiment: cell-based or functional assay.
The next test concerns the target T4, human galectin-1 (Homo sapiens, UniProt P09382, biotin (sites not given)).
T4 construct: human galectin-1, recombinant; also called h-Gal 1; source: recombinant
In words: ELISA; direct ELISA: antibodies coated in a 96-well plate; biotinylated galectins at 1 nM, detected by streptavidin-HRP; for gal-9S also 1h at 37°C with or without lactose 20 mM (S1 Fig). The note with it: both partners purified.

Another test addresses T5, human galectin-7 (Homo sapiens, UniProt P47929, biotin (sites not given)).
T5 construct: human galectin-7, recombinant; also called h-Gal 7; source: recombinant
The test is described as above. Particulars: both partners purified.

A further test addresses T6, human galectin-4 (Homo sapiens, UniProt P56470, biotin (sites not given)).
T6 construct: human galectin-4, recombinant; also called h-Gal 4; source: recombinant
Described as above. Particulars: both partners purified.

A further test addresses T7, human galectin-2 (Homo sapiens, UniProt P05162, biotin (sites not given)).
T7 construct: human galectin-2, recombinant; also called h-Gal 2; source: recombinant
The test is described as above. The note with it: both partners purified.

The next test concerns the target T8, human galectin-8 (Homo sapiens, UniProt O00214, biotin (sites not given)).
T8 construct: human galectin-8, recombinant; also called h-Gal 8; source: recombinant
Described as above. Particulars: both partners purified.

A further test addresses T9, human galectin-10 (Homo sapiens, UniProt Q05315, biotin (sites not given)).
T9 construct: human galectin-10, recombinant; also called h-Gal 10; source: recombinant
The description is as above. The note with it: both partners purified.

Positions count from the first letter of the chain named.

As usually defined, the koff is a measure of how fast the partners let go of each other. The term kon denotes the second-order rate constant of association.

T3 sequence (chain, as listed by the source): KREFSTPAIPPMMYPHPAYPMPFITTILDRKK
Sequence of human recombinant galectin-9, short isoform (gal-9S) (O00182 whole entry, looked up, change not shown, canonical isoform): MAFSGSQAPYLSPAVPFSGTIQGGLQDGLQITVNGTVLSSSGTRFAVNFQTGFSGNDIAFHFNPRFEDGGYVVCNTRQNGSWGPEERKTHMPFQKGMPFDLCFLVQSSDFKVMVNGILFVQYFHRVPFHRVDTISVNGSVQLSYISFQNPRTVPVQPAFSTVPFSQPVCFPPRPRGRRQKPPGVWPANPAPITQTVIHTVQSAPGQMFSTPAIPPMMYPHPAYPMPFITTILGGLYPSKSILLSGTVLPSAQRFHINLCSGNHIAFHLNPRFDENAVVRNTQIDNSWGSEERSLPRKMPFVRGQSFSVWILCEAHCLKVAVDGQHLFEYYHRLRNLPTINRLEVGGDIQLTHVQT
T8 sequence (O00214 whole entry): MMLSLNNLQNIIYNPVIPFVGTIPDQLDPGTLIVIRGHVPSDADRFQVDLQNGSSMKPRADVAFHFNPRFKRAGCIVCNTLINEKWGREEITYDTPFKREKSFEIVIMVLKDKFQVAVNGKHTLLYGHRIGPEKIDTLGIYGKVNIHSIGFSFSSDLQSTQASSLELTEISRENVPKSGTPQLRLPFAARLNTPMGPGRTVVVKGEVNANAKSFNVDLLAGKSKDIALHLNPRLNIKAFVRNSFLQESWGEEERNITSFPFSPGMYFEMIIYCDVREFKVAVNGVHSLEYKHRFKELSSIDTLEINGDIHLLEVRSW
T9 sequence (Q05315 whole entry): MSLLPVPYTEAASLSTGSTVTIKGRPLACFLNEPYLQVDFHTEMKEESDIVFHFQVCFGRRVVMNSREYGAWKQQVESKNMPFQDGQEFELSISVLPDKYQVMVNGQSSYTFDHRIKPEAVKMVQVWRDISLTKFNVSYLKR
T7 sequence (P05162 whole entry): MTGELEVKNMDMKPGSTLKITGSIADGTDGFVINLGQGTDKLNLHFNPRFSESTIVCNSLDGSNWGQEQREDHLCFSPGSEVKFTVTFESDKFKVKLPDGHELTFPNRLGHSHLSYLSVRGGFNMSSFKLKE
T6 sequence (P56470 whole entry): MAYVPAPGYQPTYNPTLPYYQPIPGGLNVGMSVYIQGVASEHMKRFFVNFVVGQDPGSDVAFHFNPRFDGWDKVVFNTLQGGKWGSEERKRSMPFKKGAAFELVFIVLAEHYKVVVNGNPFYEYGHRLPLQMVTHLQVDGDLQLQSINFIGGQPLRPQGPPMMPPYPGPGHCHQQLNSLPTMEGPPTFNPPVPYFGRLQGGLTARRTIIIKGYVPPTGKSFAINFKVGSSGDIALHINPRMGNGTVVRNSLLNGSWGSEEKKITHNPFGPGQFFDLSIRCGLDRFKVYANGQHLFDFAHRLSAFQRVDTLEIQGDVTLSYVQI
T5 sequence (P47929 whole entry): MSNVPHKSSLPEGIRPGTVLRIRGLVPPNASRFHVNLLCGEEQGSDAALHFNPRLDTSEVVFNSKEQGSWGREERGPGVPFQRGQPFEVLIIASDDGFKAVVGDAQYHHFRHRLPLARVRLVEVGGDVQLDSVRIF
T4 sequence (P09382 whole entry): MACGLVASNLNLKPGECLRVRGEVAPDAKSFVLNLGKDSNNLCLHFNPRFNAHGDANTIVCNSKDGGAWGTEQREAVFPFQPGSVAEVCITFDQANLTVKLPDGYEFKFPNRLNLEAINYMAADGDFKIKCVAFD

B1: Gal-Nab1 (antibody, V domains shown)
VH: KVQLQQSGAELVKPGASVKLSCKASGYTFTDYTIHWVKQRSGQGLEWIGWFYPGSHSIKYNEQFKDRATLTADKSSSTVYMELSRLTSEDSAVYFCTRHGGYDGFDYWGQGTTLTVSS
VL: DIVMSQSPSSLAVSVGEKITMSCKSSQSLFYSTNQKNYLAWYQQKPGQSPKLLIYWASTRESGVPDRFTGSGSGTDFTLTISSVKAEDLAVYYCQQYYYFPYTFGGGTKLEIK
notes: heavy chain CDR1; heavy chain CDR2; heavy chain CDR3; mouse IgG1 heavy chain constant region (isotype IgG1, kappa as stated); light chain CDR1; light chain CDR2; light chain CDR3; mouse kappa light chain constant region (isotype IgG1, kappa as stated); Mouse IgG1, kappa; Raised against the C-terminal part of human gal-9 (residues 191 to 355 of gal-9L); also called anti-gal-9 mAb
In the case of B1, the binding result is on record as “binds” with peptide 12; “binds” with peptide 13; “no binding (tested: 1 nM)” in the test with human galectin-1; “no binding (tested: 1 nM)” in the test with human galectin-7; “no binding (tested: 1 nM)” in the test with human galectin-4; “no binding (tested: 1 nM)” in the test with human galectin-2. Also, the binding result with human galectin-8 and with human galectin-10 was “no binding (tested: 1 nM)” each time. In test [1], the Kd was found to be 0.01 nM. For the same molecule, the koff in [1] stood at 2.3e-05 s⁻¹. Also, the kon in test [1] is 2.3e+06 M⁻¹ s⁻¹. For the same molecule, the t1/2 in test [1] came to 8.37. Moreover, the “EC50 of prevention of gal-9-induced apoptotic death (annexin-V+ PI+) of activated primary CD3+ T cells; gal-9S 40 nM, 36 h, antibody 0.3 to 100 nM” value in [2] was 10 nM. Besides, in [2], the “EC50 of reduction of gal-9-induced non-lethal PS translocation (annexin-V+ PI-) in activated primary CD3+ T cells; gal-9S 40 nM, 36 h, antibody 0.3 to 100 nM” value came out at 50 nM.

B2: Gal-Nab2 (antibody, V domains shown)
VH: KVQLQQSGAELVKPGASVKLSCKASGYTFTEYTIHWVKQRSGQGLEWIGWFYPGSGSMEYNEKFDKATLTADNSSSTVYMELSRLTSEDSAVYFCERHGGYDGFDYWGQGTTLTVSS
VL: B1 VL with I19V, F30L, T33N, E61G, V91I, Y99S, F100Y, Y102F
notes: heavy chain CDR1; that of Gal-Nab1 has 17); heavy chain CDR3; mouse IgG1 heavy chain constant region (isotype IgG1, kappa as stated); light chain CDR1; light chain CDR2; light chain CDR3; mouse kappa light chain constant region (isotype IgG1, kappa as stated); Mouse IgG1, kappa; Raised against the C-terminal part of human gal-9 (residues 191 to 355 of gal-9L); also called anti-gal-9 mAb
Regarding B2, the binding result was “binds” with peptide 12; “no binding (tested: 1 nM)” with human galectin-1; “no binding (tested: 1 nM)” with human galectin-7; “no binding (tested: 1 nM)” with human galectin-4; “no binding (tested: 1 nM)” in the test with human galectin-2; “no binding (tested: 1 nM)” with human galectin-8. The binding result in the test with human galectin-10 was “no binding (tested: 1 nM)”. Also, in [2], the “EC50 of prevention of gal-9-induced apoptotic death (annexin-V+ PI+) of activated primary CD3+ T cells; gal-9S 40 nM, 36 h, antibody 0.3 to 100 nM” value amounted to 25 nM.
